Reference: patent US20230279131A1
Residue numbers refer to the chain shown, from its start.

T1: human IL2Rγ expressed on cells (human) (UniProt P31785)
T1 sequence (looked up): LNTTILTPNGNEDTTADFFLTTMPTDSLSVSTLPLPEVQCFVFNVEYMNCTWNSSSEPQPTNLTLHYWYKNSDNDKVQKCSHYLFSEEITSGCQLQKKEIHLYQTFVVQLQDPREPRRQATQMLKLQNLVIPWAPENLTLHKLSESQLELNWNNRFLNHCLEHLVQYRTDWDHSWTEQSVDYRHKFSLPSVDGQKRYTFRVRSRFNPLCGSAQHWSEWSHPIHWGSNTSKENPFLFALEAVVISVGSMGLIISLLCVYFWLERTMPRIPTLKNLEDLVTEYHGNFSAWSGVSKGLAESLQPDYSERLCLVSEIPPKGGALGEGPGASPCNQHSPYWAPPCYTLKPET

T2: mouse IL-2Rγ expressed on cells (MC/9) (mouse) (UniProt P34902)
T2 sequence (looked up): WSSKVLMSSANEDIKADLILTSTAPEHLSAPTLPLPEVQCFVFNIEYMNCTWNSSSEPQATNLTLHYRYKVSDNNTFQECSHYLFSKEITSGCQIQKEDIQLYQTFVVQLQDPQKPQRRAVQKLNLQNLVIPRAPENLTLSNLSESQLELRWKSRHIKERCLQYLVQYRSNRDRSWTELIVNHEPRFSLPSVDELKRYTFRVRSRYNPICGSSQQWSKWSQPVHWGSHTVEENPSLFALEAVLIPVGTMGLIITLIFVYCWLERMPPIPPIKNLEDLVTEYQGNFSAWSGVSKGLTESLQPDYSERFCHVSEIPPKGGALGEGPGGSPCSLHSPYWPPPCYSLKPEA

T3: human IL-2Rγ expressed on cells (NK-92, Jurkat) (human) (UniProt P31785)
T3 sequence (looked up): T1 sequence (looked up)

B1: human IL-7 (ligand, UniProt P13232 26-177, looked up)
chain: DCDIEGKDGKQYESVLMVSIDQLLDSMKEIGSNCLNNEFNFFKRHICDANKEGMFLFRAARKLRQFLKMNSTGDFDLHLLKVSEGTTILLNCTGQVKGRKPAALGEAQPTKSLEENKSLKEQKKLNDLCFLKRLLQEIKTCWNKILMGTKEH
B2: H4H12899P (antibody, human IgG4 S228P, kappa, V domains shown)
VH: QVQLVESGGDLVKPGGSLRLSCATSGFTFSDFYMTWIRQAPGKGLEWISYISNSGSIVKYADSVKGRFTISRDNAKNSLYLQMNSLRAEDTAIYYCARFYGDRWGQGTLVTVSS
VL: DIQLTQSPSFLSASVGDRVTITCWASQGISTFLAWYQQKPGKAPKLLIYAASTLQSGVPSRFSGSGSGTDFTLTISSLQPEDFATYHCQQLNNYPWTFGQGTKVEIKR
B3: H4H12900P (antibody, human IgG4 S228P, kappa, V domains shown)
VH: QVQLVESGGGLVKPGGSLRLSCEASGFTFNDFYMTWIRQAPGKGLEWIAYISKSGDKMRYADSVKGRFSTSRDNAKNSLSLQMNSLRAEDTAVYYCARFYGDIWGQGTLVTVSS
VL: B2 VL with G28D, T31S, A34V, K45N, T53A, D70E, T85S, H87Y, Q89E
B4: H4H12858P (antibody, human IgG4 S228P, kappa, V domains shown)
VH: EVQLVESGGDLVQPGGSLRLSCTASGFIFRNYAMNWVRQAPGKGLEWLSGILGSNDNTYYVDSVKGRFTISRDNSRNTLYLQMNSLRAEDSAVYYCAKGDAGGFDYWGQGTLVTVSS
VL: DVVMTQSPLSLPVILGQPASISCRSSQSLVSSDGNTYLNWFQQRPGQSPRRLIYKVSNRDSGVPDRFSGSGSGTDFTLKISRVEAEDVGAYYCMQGSYWPPTFGQGTKLEIKR
B5: H4H12857P (antibody, human IgG4 S228P, kappa, V domains shown)
VH: EVQLVESGGGVVRPGGSLRLSCAASGFTFDDFDMSWVRQGPGKGLEWVSGINWHGSSTGYADSVKGRFTISRDNAKNSLYLQMSSLRAEDTALYHCVRGGTIVGATTPLDYWGQGTLVTVSS
VL: DIQMTQSPSSLSASVGDRVTMTCRASRTISSYLSWYQQKSGKVPNLLIFGASSLQSGVPSRFSASGSGTDFTLIISSLQPEDFATYYCQQSYSSPLTFGGGTKVEIKR
B6: H4H12874P (antibody, human IgG4 S228P, kappa, V domains shown)
VH: QVQLVESGGGVVQPGRSLRLSCAASGFNFRNFGMHWVRQAPGKGLEWVAGILYDGSSKYYADSVKDRFTISRDNSKNTLFLQMNSLRAEDTAMYYCAKEEDTAMVPFDSWGPGTLVTVSS
VL: B2 VL with T31S, F32Y, K45T, D70E, T85S, H87Y, N92K, N93S, W96L, Q100G
B7: H4H12863P (antibody, human IgG4 S228P, kappa, V domains shown)
VH: QVQLVESGGGVVQPGRSLRLSCTASGFTFRSYDMYWVRQAPGKGLEWVSVITYDGNNKYYADSVKGRFTISRDNSKNTLFLQMSSLRPEDTAVYYCAKRGLIWVGESFDYWGQGTLVTVSS
VL: DIQMTQSPSTLSASVGDRVTITCRASQSINSWLAWYQQKPGKAPNLLIYKASSLESGVPSRFSGSGSGTEFTLTISSLQPDDFATYYCQQYKSYSWTFGQGTKVEIKR
B8: H4H13541P (antibody, human IgG4 S228P, kappa, V domains shown)
VH: EVQLVESGGGVVRPGGSLRLSCAASGFIFDDYDMSWVRQPPGRGLEWVSGIDWFGGTRGYADSMKGRFTISRDNAKNSLYLQMNSLRVEDTAFYYCARGGAIVGAVTPFDYWGQGTLVTVSS
VL: DIQMTQSPSSLSASVGNRVTLSCRASQSINTYLSWYQQRPGKAPKLLIYAASSLQSGVPSRFSGSGAGTDFTLTISSLQPEDFATYYCQQSYSAPLTFGGGTKVEIKR
B9: H4H13538P (antibody, human IgG4 S228P, kappa, V domains shown)
VH: EVQLVESGGGLVQPGGSLGLSCAASGFTFSNYAMSWVRQAPGKGLEWVSAVSGGGGGTYYADSVKGRFTISRDNSKNTVLLQMNSLRAEDTAVYYCARGRTGGLDYWGPGTLVTVSS
VL: B4 VL with L15F, S31D, F41L, K55E, K79T, A90I, S97T, Y98R, Q105G, L109V

Target: T1, human IL2Rγ expressed on cells (human)
Assay: cell-based or functional assay

Row | EC50 [M] of ligand; NK92/hIL7R/STAT3-luc [M] | Binder
1 | 3.9e-11 | B1

Target: Human IL2Rγ extracellular domain expressed with a C-terminal mouse IgG2a Fc tag (human)
Assay: SPR Biacore 4000, mAb captured by anti-human Fc, 25 C

Row | 100 nM Ag Bound [RU] | Binder
2 | 1 | B2
3 | 4 | B3

Target: T2, mouse IL-2Rγ expressed on cells (MC/9) (mouse)
Assay: flow cytometry on MC/9 cells (endogenous mouse IL-2Rg), antibody 10 ug/ml

Row | Binding Ratio (Sample over unstained MFIs) | Raw MFI [MFI] | Binder
4 | 1 | 199 | B4
5 | 1 | 198 | B5
6 | 1 | 167 | B2
7 | 1 | 202 | B6
8 | 1 | 128 | B3
9 | 1 | 185 | B7

Target: T3, human IL-2Rγ expressed on cells (NK-92, Jurkat) (human)
Assay: flow cytometry on NK-92 cells (endogenous human IL-2Rg), antibody 10 ug/ml

Row | Binding Ratio (Sample over unstained MFIs) | Raw MFI [MFI] | Binder
10 | 37 | 7050 | B8
11 | 2 | 228 | B4
12 | 1 | 235 | B9
13 | 37 | 5490 | B5
14 | 18 | 2670 | B2
15 | 44 | 6580 | B6
16 | 28 | 4200 | B3
17 | 87 | 13000 | B7

Target: T3, human IL-2Rγ expressed on cells (NK-92, Jurkat) (human)
Assay: flow cytometry on Jurkat cells (endogenous human IL-2Rg), antibody 10 ug/ml

Row | Binding Ratio (Sample over unstained MFIs) | Raw MFI [MFI] | Binder
18 | 1 | 99 | B4
19 | 1 | 103 | B5
20 | 1 | 114 | B2
21 | 6 | 507 | B6
22 | 1 | 110 | B3
23 | 13 | 1170 | B7
